# Laboratory results as given in the supplement of paper PMC10126150.
# ± gives the standard deviation of the averaged measurements.
# System: ATP
# Assay: switch fluorescence ratio, 500 uM ATP over buffer (Cy3 cluster intensity, sum of 5 cycles each) (fold (ratio)); higher = stronger signal-on switching upon ATP binding; sequences stand for … in TCGTCGGCAGCGTCAGATGTGTATAAGAGACAGTTTTTTTTTTTTTTTTTTTTTTTTT…TC
# Conditions: aptamer strand: ATP DNA aptamer (quencher-CACCTGGGGGAGTATTGCGGAGGAAGG + anchor), 100 nM annealed; ATP concentration: 500 uM
# Procedure, shortened: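 Cy3-labelled switching-strand clusters on a modified Illumina MiSeq flow-cell were annealed to 100 nM quencher-labelled ATP aptamer and imaged first in selection buffer, then after 15 min with 500 uM ATP at 22 °C. NaOH stripping and re-annealing separated each of five buffer/ATP cycles, and clusters outside 100-1000 RFU were excluded. The fluorescence ratio sums target-cycle Cy3 intensity over buffer-cycle Cy3 intensity per cluster and averages it per switch-domain sequence.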
# 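Note: ATP exposure 15 min at 22 °C before imaging.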
row,Sequence,switch fluorescence ratio
1,CTTAGCGGGG,0.9827 ± 0.0064
2,AGTTATAAGT,0.979 ± 0.01
3,TTACAAGTGT,0.993 ± 0.016
4,GCCGGCAAGT,1.02 ± 0.016
5,ATTGAGTGTT,0.987 ± 0.034
6,TGAGTTTTTT,0.982 ± 0.039
7,CTGAATATGA,1 ± 0.065
8,TGATGATTTT,0.945 ± 0.017
9,CAGGTATGTT,1 ± 0.016
10,TTTTCCTATG,0.977 ± 0.019
11,AAGGGCAACG,0.974 ± 0.063
12,AGGTTTTGGT,1 ± 0.055
13,TTTTAATTTT,0.998 ± 0.029
14,CGTTGTAAGG,1.01 ± 0.027
15,GAGGTCGGGC,0.94 ± 0.039
16,ATGATAGAAC,1.03 ± 0.015
17,ATGTATTGAG,1.008 ± 0.0025
18,GTTTTTAGTT,1.012 ± 0.0084
19,CCATTGTGCA,1.01 ± 0.013
20,TAAGTGGGGG,0.979 ± 0.03
21,CGCTTAAGAG,1.02 ± 0.014
22,GGGGGTACGT,0.989 ± 0.03
23,AAGTAGTTTT,0.985 ± 0.024

row,Sequence,switch fluorescence ratio
1,CACGGTTGTT,1.015 ± 0.0074
2,CGTGCCAGCA,0.983 ± 0.045
3,ATGAGCCGAG,0.9983 ± 0.009
4,CTTTGGGGAC,1.055 ± 0.006
5,AACGATTTTG,1.03 ± 0.016
6,TCTTTTAGTA,0.991 ± 0.035
7,TATTTTAATC,1.04 ± 0.059
8,GGAGTTTAGT,1.008 ± 0.0016
9,GGCTTTGGGT,0.991 ± 0.014
10,GATGTCAACG,0.973 ± 0.032
11,GAAGGGGATA,1.01 ± 0.036
12,TTCCACTTGA,1.04 ± 0.047
13,TGGGAATTAA,0.979 ± 0.04
14,CGACGTTCGC,1.48 ± 0.037
15,GTTTCATGAA,1.01 ± 0.018
16,TAAGGTTTGG,0.9862 ± 0.0092
17,GGAGAGTGCT,0.985 ± 0.015
18,TAGAATTGGT,0.983 ± 0.016
19,ATTAGGTCTG,0.941 ± 0.044
20,GGGTGAAAGC,1 ± 0.017
21,GCTAGTAAAA,1.02 ± 0.029
22,CGTTTTTGTA,0.99 ± 0.015
23,GATGTGGTGG,0.99 ± 0.034

row,Sequence,switch fluorescence ratio
1,CAGACGCGGG,0.99 ± 0.057
2,GCCGCCGTAA,1.3 ± 0.079
3,TCGACCGGGG,1.039 ± 0.0098
4,TTTGCCCCGG,1.12 ± 0.12
5,CGCGCGATTA,1.02 ± 0.036
6,GCCGGCCGGA,1.02 ± 0.02
7,TTAAAAGCGG,1.03 ± 0.013
8,TTCAGTGTCG,1.01 ± 0.073
9,TGGTGGGGTA,0.998 ± 0.022
10,TCGTCAGCTG,1.02 ± 0.061
11,GACCTTTGAG,1.017 ± 0.0045
12,AGTGAGCAGG,1.11 ± 0.015
13,TTCAAGTTAG,1 ± 0.035
14,GAAGATGGTG,0.963 ± 0.037
15,ATCCATATT,1.03 ± 0.029
16,GTTGTGGATA,0.97 ± 0.029
17,CAGGGGGGAG,0.992 ± 0.035
18,GTTGGATGTA,1.011 ± 0.008
19,TTGCCCCTTA,1.03 ± 0.045
20,CGGAGCAGGA,1.48 ± 0.17
21,TCTGGGGGT,0.949 ± 0.02
22,GGGTTAAGTT,1 ± 0.027
23,GCGGGGTGTT,1.03 ± 0.013

row,Sequence,switch fluorescence ratio
1,ATGGGCGGTA,1.04 ± 0.052
2,TCAAGGGATC,0.991 ± 0.073
3,GTAGGAGGGA,1.05 ± 0.1
4,CCTATGGCGG,1.07 ± 0.017
5,GAGTGGGGA,1.03 ± 0.04
6,ATGGGGTACA,1.033 ± 0.0032
7,CGGACCAACG,1.09 ± 0.019
8,AGGCGAAGCA,0.9923 ± 0.0092
9,ATGGGGAATG,0.984 ± 0.016
10,GAATTTTTTG,0.988 ± 0.012
11,GTTGACAAAT,1.036 ± 0.01
12,ATACAAAA,1.02 ± 0.048
13,CGGATGTGTA,1.002 ± 0.01
14,TGGGGTATCT,1 ± 0.019
15,GCTGTCATTC,1.01 ± 0.014
16,GAGCCTCGGA,1.29 ± 0.44
17,CGGTTTGACT,0.9563 ± 0.0063
18,TTTTGTATTC,1.05 ± 0.12
19,GTGAAGACGT,1.002 ± 0.0077
20,TTTTAAATAA,1.01 ± 0.026
21,AAGGTAAGGT,1 ± 0.023
22,ACTATCGAAA,1.09 ± 0.03
23,AGTATGTATA,0.9957 ± 0.0083

row,Sequence,switch fluorescence ratio
1,TTTCAGTGTT,1.05 ± 0.099
2,GGTGAGTTAC,0.98 ± 0.013
3,ACATATAGAG,1.051 ± 0.0097
4,TGGTTTGGTT,0.986 ± 0.04
5,GCTATCTTAT,0.9798 ± 0.008
6,TATAGCCGAA,1 ± 0.083
7,AGAATGGCAG,0.991 ± 0.029
8,GCGGGGGTGC,1.03 ± 0.048
9,CGTTTCAGGT,0.994 ± 0.036
10,AAATTTGGGA,0.969 ± 0.027
11,TCCAAACTGT,1.01 ± 0.051
12,GATTGAGAGT,1.019 ± 0.0087
13,GGTTAACTTA,0.979 ± 0.042
14,TTATAATGTG,1.009 ± 0.01
15,ACGGCCGGTC,0.9773 ± 0.0026
16,GGAGTGGGAC,1.12 ± 0.14
17,AAGGAGGCTT,1.05 ± 0.066
18,CGGTGGGAGT,0.973 ± 0.03
19,CCTTTCACTC,1.124 ± 0.0035
20,TATACCGGCG,1.05 ± 0.076
21,TTATAAACCT,1.99 ± 1.4
22,CGTCAGGGGG,0.972 ± 0.027
23,GGGATGGCCT,0.959 ± 0.011

row,Sequence,switch fluorescence ratio
1,GGGCTGGGGA,1.01 ± 0.033
2,ACGTTGCAGC,1.047 ± 0.006
3,GTTGTTGTGA,0.976 ± 0.02
4,TTGTATTAAT,0.975 ± 0.031
5,ATTTATCGGG,1 ± 0.027
6,TTTTTATTCC,1.02 ± 0.034
7,TATCCGGGGT,1.03 ± 0.025
8,ATGGGTGATA,0.9935 ± 0.0092
9,AGTCCAAGGC,1.02 ± 0.065
10,GTTTTTTATA,0.995 ± 0.011
11,TATGAAGTCG,0.9937 ± 0.0098
12,GGGGGAACTT,0.977 ± 0.032
13,AGGGCTTGCT,0.987 ± 0.038
14,TTTCAAGATT,0.998 ± 0.015
15,TTAGGAGGGG,1.03 ± 0.11
16,TCCTGATTCT,1.03 ± 0.033
17,GCTAATAGCC,1.059 ± 0.00084
18,TTTCTCGAAT,1 ± 0.029
19,TAGAGCTGCA,1.02 ± 0.026
20,TTTTTTACTC,1 ± 0.039
21,GGGGTTCAGC,0.978 ± 0.038
22,GCGTTTATAC,1.96 ± 0.56
23,AGGGTAGCGG,0.955 ± 0.012

row,Sequence,switch fluorescence ratio
1,TTGTGGCCGT,1.039 ± 0.0035
2,CAAAGCTGGG,1.05 ± 0.05
3,GATATGCGTC,1.04 ± 0.0086
4,GTTGCATCGA,1.02 ± 0.046
5,ACTTTTTGAG,0.996 ± 0.032
6,AGTTGCGGGA,1.0114 ± 0.00031
7,TTGCCAGATT,0.994 ± 0.037
8,GACGGTTGTG,1 ± 0.012
9,CACACAAAAT,0.977 ± 0.014
10,CATATGATCG,0.961 ± 0.025
11,GTGTCCGTGG,1.003 ± 0.0037
12,TAAAGGGGGG,1.01 ± 0.047
13,GCCATCAATA,1.03 ± 0.023
14,ACGCGGCGGG,0.977 ± 0.036
15,AGTTTTTACC,1.01 ± 0.046
16,AGAGGTTTTT,0.989 ± 0.019
17,TTTAAAATGG,0.9998 ± 0.0073
18,TACGTTATTT,1.16 ± 0.027
19,GGGGGGCAAC,1.03 ± 0.099
